Results taken from patent publication US20260078171A1.

Assays:
Test in all cases: BLI (Octet), Fab, monovalent
[1] = target: SARS-CoV-2 Omicron BA.2 RBD (SARS-CoV-2)
[2] = target: SARS-CoV-2 Omicron BA.1 spike S1 subunit (SARS-CoV-2)
[3] = target: SARS-CoV-2 Beta RBD (SARS-CoV-2)

B1: VYD222 Fab (Fab, V domains shown)
VH: EVQLVESGGGLVKPGGSLRLSCAASGFTFGSYEMNWVRQAPGKGLEWVSSISEDGYSTYYPDSLKGRFTISRDSAKNSLYLQMNSLRADDTAVYYCARDFGGDTAWAGTGFTYWGQGTLVTVSS
VL: QSVLTQPPSVSGAPGQRITISCTGSSSNIGAGYDVHWYQQLPGTAPKLLIYGSSSRNYGVPDRFSGSKSGTSASLAITGLQAEDEADYYCQSYDSDLGVLYTFGTGTKVTVL
- Kd [1]: 13.5 nM
- Kd [2]: 18.1 nM
- Kd [3]: 1.74 nM
